Paper PMC7335806 (2020)

B1: His-tagged human Sar1A (H79G) [human] / RRFR peptides (first intracellular loop of Fzd6) [mouse] (parent complex)
chain 1: not shown
chain 2: VRRFRYPERPC

Variants of: B1
Assay: peptide pull-down (peptides linked to thiopyridone-Sepharose 6B), immunoblot quantification; n = 3; parent: 1; read off a plot

ratio to parent | Variant
~0.08 | chain 2 R2A, chain 2 R3A, chain 2 R5A
